Data from patent US8501695B2, “Tissue kallikrein for the treatment of diseases associated with amyloid protein” (DiaMedica, Inc., priority 2007, dated 2013).
“And” between values parts separate entries of the source, which are not always exact repeats. Equal values may be shown once.

Assay: Pharmacokinetic study of intranasal tissue kallikrein (125I-KLK1 tissue concentrations by gamma counting)
Format: in vivo
Conditions: rat, 30 min. end point, individual animal, listed as kallikrien
Description: The purpose of this study was to quantify the amount of tissue kallikrein (KLK1) reaching the central nervous system and peripheral tissues after intranasal administration to anesthetized rats. At 30 min after KLK1 administration, animals were transcardially perfused with ice-cold saline followed by paraformaldehyde fixative and tissues were dissected. The amount of radiolabeled KLK1 in each tissue sample was quantified by gamma counting and tissue concentrations were calculated using tissue weight and gamma counting of standards of the dosing solutions
Adult male Sprague Dawley rats (n=10, mean 335.4 g±4.57 g SE) were used for this study. Animals were group housed in the Regions Hospital Animal Care Facility with free access to food and water. Animals were kept on a 12 h light cycle. All experimental procedures were approved by the Animal Care and Use Committee at Regions Hospital under IACUC protocol number 08-022.
Tissue kallikrein was sent to Perkin-Elmer for ^125I-labelling (Quote NEX-084, lot C1541583). Non-labeled KLK1 from Sigma (cat#K3627-1KU, lot 018K1441) was also used. Non-labeled KLK1 was dissolved in 1×PBS (10×PBS, Sigma, cat #P5493, lot 027K8405 diluted in sterile water). The average dose was 48.1 μL, 75 μCi, and 2.6 mg.
• a. Prior to anesthesia, each rat was weighed. • b. An anesthesia cocktail was prepared and full, half, and quarter anesthesia doses were calculated according to the animal's weight with a full dose containing 30 mg/kg ketamine, 6 mg/kg xylazine, and 1 mg/kg acepromazine. • c. A 1-cc syringe fitted with a 25 G or 27 G, ½ inch needle was assembled and a full dose was drawn into the syringe for injection. • d. Rats were restrained in a towel as follows. Rats were placed ventral side down in the middle of a hand towel. The towel was then wrapped around the head and shoulders to restrain. Wrapped animals remained ventral side down while the left hind leg was located. • e. The left hind leg was drawn to the side and the needle was inserted just beneath the skin (subcutaneous) above the thigh. After ensuring that the needle was placed subcutaneously (and not intramuscularly), full doses were injected. Rats were placed in holding cages and the injection time noted. Animals should be under within 5 min. • f. Anesthesia was monitored throughout the procedures by assessing reflexes using pinching of the hind paw or tail. If a reflex was present, a half or quarter dose booster was administered as necessary. • g. During drug administration, animals received a half dose booster roughly 20-25 min after initial dose. Intranasal Delivery of ^125I-KLK1 • a. Anesthetized rats were placed on their backs on a heating pad in a metal surgical tray. The heating pad was connected to a thermostat and was automatically regulated to maintain a 37° C. temperature based on continuous measurement from a rectal probe. • b. A 2″×2″ gauze pad was rolled tightly into a pillow, taped together, and under the neck to maintain a correct neck position horizontal with the counter. • c. A lead impregnated shield was placed between the surgical tray and the experimenter for protection against radiation. The dose solution, pipette, pipette tips, and waste receptacle were arranged behind the shield for easy access. • d. A 6 μL drop was loaded into the pipette behind the shield. • e. A cotton swab covered in parafilm was used to occlude one naris completely (the flat part of the swab was pushed gently against the naris to prevent airflow), while the 6 μL drop was expelled slowly from the pipette (held at a 45° angle from the rat's midline), forming a drop on the pipette tip. The drop was lowered onto the open naris to be inhaled. • f. After two minutes, the alternate naris was occluded and a 6 μL drop was administered in the same fashion. • g. A drop was administered as described above every two minutes to alternating nares until a total of 8 drops was delivered (4 to each naris) over 14 min. • h. […]

B1: tissue kallikrein: serine protease that cleaves kininogen into kallidin; polypeptide SEQ ID NO:1 (Sus scrofa kallikrein 1), KLK1 from Sigma (protein, listed as Sus scrofa)
chain: MWSLVMRLALSLAGTGAAPPIQSRIIGGRECEKDSHPWQVAIYHYSSFQCGGVLVDPKWVLTAAHCKNDNYQVWLGRHNLFENEVTAQFFGVTADFPHPGFNLSLLKNHTKADGKDYSHDLMLLRLQSPAKITDAVKVLELPTQEPELGSTCQASGWGSIEPGPDDFEFPDEIQCVELTLLQNTFCADAHPDKVTESMLCAGYLPGGKDTCMGDSGGPLICNGMWQGITSWGHTPCGSANKPSIYTKLIFYLDWINDTITENP
modifications: 125I label in one form
  concentration in Lung (R, top lobe): 48.6 nM and 48.7 nM and 46.8 nM and 18.2 nM and 37.2 nM and 30.1 nM and 27.9 nM and 24.4 nM and 64.3 nM and 25.5 nM
  concentration in Medulla: 12.3 nM and 9.9 nM and 13.99 nM and 17.4 nM and 11.1 nM and 21.0 nM and 21.1 nM and 10.6 nM and 20.5 nM and 10.8 nM
  concentration in Midbrain: 12.3 nM and 9.5 nM and 13.1 nM and 15.3 nM and 10.0 nM and 15.9 nM and 9.9 nM (2×) and 16.4 nM
  concentration in Muscle (R, deltoid): 24.2 nM (2×) and 17.7 nM and 17.5 nM and 15.8 nM and 12.4 nM and 16.5 nM and 23.1 nM and 29.3 nM and 33.2 nM
  concentration in Occipital Cortex: 9.8 nM (2×) and 9.6 nM and 12.7 nM and 12.3 nM and 14.1 nM and 14.0 nM and 13.6 nM and 19.2 nM
  concentration in Olfactory Bulbs: 44.4 nM and 39.9 nM and 128.1 nM and 168.8 nM and 66.2 nM and 220.9 nM and 123.5 nM and 74.5 nM and 157.1 nM and 48.2 nM
  concentration in Olfactory Epithelium: 17,707.4 nM and 21,919.4 nM and 21,270.9 nM and 41,836.8 nM and 17,083.5 nM and 31,983.9 nM and 38,661.3 nM and 13,736.3 nM and 17,247.4 nM and 26,179.4 nM
  concentration in Optic Chiasm: 20.7 nM and 14.4 nM and 41.3 nM and 34.7 nM and 51.4 nM and 8.4 nM and 38.2 nM and 27.0 nM and 28.7 nM
  concentration in Parietal Cortex: 7.5 nM and 8.5 nM and 10.5 nM and 9.0 nM and 10.1 nM and 18.5 nM and 14.3 nM and 12.8 nM and 17.6 nM and 12.3 nM
  concentration in Pituitary: 86.9 nM and 44.0 nM and 58.9 nM and 51.8 nM and 79.3 nM and 59.7 nM and 44.3 nM and 67.9 nM and 48.1 nM
  concentration in Pons: 12.4 nM and 10.0 nM and 13.9 nM and 16.2 nM and 10.1 nM and 22.0 nM and 18.6 nM and 10.6 nM and 20.4 nM and 10.2 nM
  concentration in Posterior Trigeminal Nerve: 82.3 nM and 37.8 nM and 60.5 nM and 48.7 nM and 47.7 nM and 50.2 nM and 35.9 nM and 70.5 nM and 32.6 nM
  concentration in Renal artery (L): 56.2 nM and 67.3 nM and 103.1 nM and 52.8 nM and 55.8 nM and 26.1 nM and 43.0 nM and 78.9 nM and 66.9 nM and 31.2 nM
  concentration in Respiratory Epithelium: 78,502.7 nM and 75,759.2 nM and 26,815.1 nM and 82,292.8 nM and 126,759.8 nM and 34,402.4 nM and 71,775.8 nM and 107,890.6 nM and 91,206.0 nM and 64,295.5 nM
  concentration in Septal Nucleus: 9.5 nM and 8.2 nM and 13.3 nM and 13.6 nM and 10.2 nM and 19.4 nM and 12.9 nM and 9.8 nM and 12.0 nM
  concentration in Spinal Dura: 23.1 nM and 26.3 nM and 36.1 nM and 21.4 nM and 16.9 nM and 26.6 nM and 26.2 nM and 39.7 nM and 20.1 nM and 29.5 nM
  concentration in Spleen (tip): 29.0 nM and 81.5 nM and 35.1 nM and 87.5 nM and 91.1 nM and 82.9 nM and 75.4 nM and 89.8 nM and 73.8 nM and 80.0 nM
  concentration in Striatum: 8.2 nM and 5.5 nM and 8.5 nM and 6.7 nM and 7.23 nM and 14.9 nM and 10.4 nM and 9.5 nM and 15.1 nM and 11.9 nM
  concentration in Superficial Nodes (2): 58.8 nM and 39.9 nM and 42.2 nM and 60.1 nM and 66.8 nM and 69.0 nM and 94.2 nM and 68.9 nM and 68.0 nM
  concentration in Temporal Cortex: 9.9 nM and 7.8 nM and 11.65 nM and 10.4 nM and 14.2 nM and 16.6 nM and 15.6 nM and 12.5 nM and 13.7 nM and 11.5 nM
  concentration in Thalamus: 7.9 nM and 6.7 nM and 12.2 nM (2×) and 10.5 nM and 8.1 nM and 15.4 nM and 14.0 nM and 7.2 nM and 9.1 nM
  concentration in Thoracic Spinal Cord: 5.5 nM and 5.1 nM and 6.7 nM and 4.5 nM and 4.2 nM and 6.5 nM and 4.7 nM and 5.7 nM and 4.1 nM and 5.0 nM
  concentration in Thyroid: 1,730.9 nM and 2,077.1 nM and 2,106.5 nM and 1,369.2 nM and 2,644.1 nM and 2,380.4 nM and 1,219.8 nM and 2,016.7 nM and 2,148.4 nM and 2,013.3 nM
  concentration in Trachea: 58.5 nM and 116.8 nM and 64.5 nM and 93.6 nM and 44.8 nM and 59.3 nM and 65.1 nM and 110.6 nM and 86.4 nM
  concentration in Upper Cervical Spinal Cord: 16.0 nM and 17.0 nM and 18.18 nM and 31.6 nM and 18.8 nM and 35.1 nM and 37.2 nM and 20.4 nM and 27.0 nM and 12.8 nM
  concentration in Urine: 249.2 nM and 79.5 nM and 190.9 nM and 57.8 nM and 51.1 nM and 65.6 nM and 287.4 nM and 95.8 nM and 139.2 nM and 90.6 nM
  concentration in Ventral Dura: 113.7 nM and 71.6 nM and 29.8 nM and 138.3 nM and 165.6 nM and 259.4 nM and 192.6 nM and 150.8 nM and 211.8 nM and 96.1 nM
